Assay [1] deals with HT1080 cells. Put plainly: DNA synthesis in HT1080 cells. Particulars: overexpression in HT1080 cells; data not shown. It counts as cell-based, human.
The subject of assay [2] is HT1080 cells. Put plainly: Migration of HT1080 cells to fibronectin. It counts as cell-based, human. Particulars: overexpression in HT1080 cells; data not shown.
The test system of assay [3] is 3T3-L1 fibroblasts. Nature of the assay: 3T3-L1 cell invasion through Matrigel matrices. The format is cell-based, murine. The note with it: retroviral expression in 3T3-L1 cells, 48 hr; for serum-stimulated (tonic) 3T3-L1 cell invasion: relative to GFP-expressing cells; for TGF-β1-stimulated 3T3-L1 cell invasion: TGF-β1 5 ng/ml, p<0.05. The procedure:
The effect CystC and D14CystC on the invasion of HT1080 and 3T3-L1 cells was determined as described previously (42). Briefly, upper chambers were coated with 100 μl of diluted Matrigel (1:50 in serum-free media), which was allowed to evaporate to dryness overnight at room temperature. The following morning the Matrigel mixtures were rehydrated and subsequently cultured with control-, CystC-, or D14CystC-expressing HT1080 or 3T3-L1 cells at a density of 100,000 cells/chamber. Cellular invasion was stimulated by addition of 2% serum to the lower chambers. Forty-eight hr later, the cells were washed twice in ice-cold PBS and immediately fixed for 15 min with 95% ethanol. Cells remaining in the upper chambers were removed with a cotton swab, whereas those remaining in the lower chamber were stained with crystal violet. Quantifying invading cells was determined through two independent measures, which yielded identical results: (i) manual counting under a light microscope, and (ii) crystal violet dye extraction by incubation of the membranes in 10% acetic acid, followed by spectrophotometry at 590 nm.
In some experiments, the effects of recombinant CystC and D14CystC on 3T3-L1 cell invasion was examined. To do so, 3T3-L1 cells (100,000 cells/chamber) were allowed to invade through Matrigel […], together with or without 5 ng/ml of TGF-β1. All subsequent procedures were performed as described above.
GFP-, CystC-, or Δ14CystC-expressing 3T3-L1 cells were allowed to invade through Matrigel-coated filters in the absence or presence of TGF-β1 (5 ng/ml) for 48 hr, and the results are shown in FIG. 2A. […] Data are the mean (±SE) of four independent experiments presented as the percent invasion relative to GFP-expressing 3T3-L1 cells.
Moreover, the inhibitory effects of CystC on 3T3-L1 cell invasion could be recapitulated by addition of recombinant CystC fusion proteins. Control or TGF-β1-stimulated (5 ng/ml) 3T3-L1 cells were allowed to invade through Matrigel-coated filters for 48 hr in the absence or presence of recombinant (10 mg/ml) GST, GST-CystC, or GST-D14CystC as indicated in FIG. 2B. […] Data are the mean (±SE) of three independent experiments presented as the percent invasion relative to untreated 3T3-L1 cells. […] Collectively, these findings indicate that 3T3-L1 cell invasion proceeds through cathepsin B-dependent and TGF-β-dependent pathways.

Assay [4] has as its target cathepsin B (Homo sapiens, UniProt P07858). The note with it: mutant lacks the cysteine inhibitor motif; reference 23; cited from earlier work.
In assay [5] the test system is 3T3-L1 cells. Put plainly: DNA synthesis in 3T3-L1 cells. The format is cell-based, murine. The note with it: data not shown.
Assay [6] concerns 3T3-L1 cells. Nature of the assay: Migration of 3T3-L1 cells to fibronectin. It counts as cell-based, murine. Particulars: data not shown.
The target of assay [7] is TGF-β1 (Homo sapiens, UniProt P01137). Put plainly: Co-immunoprecipitation and affinity pull-down of CystC with TGF-β1. The format is binding. The note with it: data not shown.
Chain of TGF-β1 (P01137 279-390 limits assumed, species assumed): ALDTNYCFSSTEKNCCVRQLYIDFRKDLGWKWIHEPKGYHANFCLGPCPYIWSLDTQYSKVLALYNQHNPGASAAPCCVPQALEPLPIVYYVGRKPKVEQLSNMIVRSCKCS

B1: Δ14CystC: human CystC with deletion of positions 80 to 93 (conserved cysteine proteinase inhibitor motif), retrovirally expressed and secreted (protein)
chain: MAGPLRAPLLLLAILAVALAVSPAAGSSPGKPPRLVGGPMDASVEEEGVRRALDFAVGEYNKASNDMYHSRALQVVRARLGRTTCTKTQPNLDNCPFHDQPHLKRKAFCSFQIYAVPWQGTMTLSKSTCQDA
modifications: left off: small tags and cut ends
Take B1: the “synthesis of DNA in HT1080 cells” value in assay [1] is reported as “failed to effect”. In addition, the “migration of HT1080 cells to fibronectin” value in assay [2] is listed as “failed to effect”. For the same molecule, in assay [3], the “serum-stimulated (tonic) 3T3-L1 cell invasion” value was “unaffected” and the “TGF-β1-stimulated 3T3-L1 cell invasion” value was “significantly inhibited”. Also, the “inactivation of cathepsin B” value in assay [4] was “unable to inactivate”.

B2: CystC: full-length human Cystatin C (SEQ ID NO:2), C-terminally Myc- and (His)6-tagged, retrovirally expressed and secreted by the cells (protein, listed as Homo sapiens)
chain: MAGPLRAPLLLLAILAVALAVSPAAGSSPGKPPRLVGGPMDASVEEEGVRRALDFAVGEYNKASNDMYHSRALQVVRARKQIVAGVNYFLDVELGRTTCTKTQPNLDNCPFHDQPHLKRKAFCSFQIYAVPWQGTMTLSKSTCQDA
modifications: C-terminal Myc and His6 tags
On to B2, for which the “synthesis of DNA in HT1080 cells” value in assay [1] is “failed to effect”. In addition, the “migration of HT1080 cells to fibronectin” value in assay [2] is given as “failed to effect”. The “3T3-L1 cell DNA synthesis” value in assay [5] is “failed to effect”. In addition, the “3T3-L1 cell migration to fibronectin” value in assay [6] is listed as “failed to effect”. Further, in assay [3], the “serum-stimulated (tonic) 3T3-L1 cell invasion” value is given as “inhibited significantly” and the “TGF-β1-stimulated 3T3-L1 cell invasion” value is given as “significantly inhibited”. Also, in assay [7], the “direct physical interaction with TGF-β1” value is “failed to demonstrate a direct physical interaction”.

Source of the values: patent publication US8058396B2, “Cystatin C as an antagonist of TGF-β and methods related thereto” (National Jewish Health, priority 2003, dated 2011).
